# In PMC7547064, “High-resolution cryo-EM structure of urease from the pathogen Yersinia enterocolitica” (Nature Communications, 2020):
# B1: Yersinia enterocolitica urease ureB protein (natural protein)
# chain: MSTKTNSTKATSEKTDSLKTNRGTKSSAGYSDQNIPLGGCILADTPITFNENKPVTKVKVRNTGDRPIQVGSHFHFFEANRALEFDRAAAYGKRLNISSTTAIRFEPGDETEVPLIPFGGKQTLYGFNNLVDGWTGEGVVPNSERPDKLEAIRRAAERGFKSSK
# notes: urease chain ureB of Yersinia enterocolitica; residues 31-162 were built in the cryo-EM model; the N-terminal extension was too disordered to be modelled; Native enzyme purified from the bacterium; source: purified from Y. enterocolitica cultures (Sephacryl S-300, Mono Q, SEC)
# B2: Yersinia enterocolitica urease ureC protein (enzyme)
# chain: MPQISRQEYAGLFGPTTGDKIRLGDTNLFIEIEKDLRGYGEESVYGGGKSLRDGMGANNHLTRDNGVLDLVITNVTIVDARLGVIKADVGIRDGKIAGIGKSGNPGVMDGVTPGMVVGVSTDAISGEHLILTAAGIDSHIHLISPQQAYHALSNGVATFFGGGIGPTDGTNGTTVTPGPWNIRQMLRSVEGLPVNVGILGKGNSYGRGPLLEQAIAGVVGYKVHEDWGATANALRHSLRMADEMDIQVSVHTDSLNECGYVEDTIDAFEGRTIHTFHTEGAGGGHAPDIIRVASQPNVLPSSTNPTLPYGVNSQAELFDMIMVCHNLNPNVPADVSFAESRVRPETIAAENVLHDMGVISMFSSDSQAMGRVGENWLRVMQTANAMKASRGKLPEDAPGNDNFRVLRYVAKITINPAIAQGVSHVIGSVEVGKMADLVLWDPRFFGAKPKMVIKGGMINWAAMGDPNASLPTPQPVFYRPMFGAMGKTMQDTCVTFVSQAALDDGVKEKAGLDRQVIAVKNCRTISKHDLVRNDQTPNIEVDPETFAVKVDGVHATCEPIDTAAMNQRYFFG
# modifications: carbamylated Lys222
# notes: urease chain ureC of Yersinia enterocolitica; residues 2-327 and 335-572 were built in the cryo-EM model; Native enzyme purified from the bacterium, with two Ni2+ ions in the active site; also called α-subunit containing the active site; source: purified from Y. enterocolitica cultures (Sephacryl S-300, Mono Q, SEC)
# B3: Y. enterocolitica urease hetero-trimer formed by the three protein chains (ureA, ureB, ureC) (complex)
# chain 1: MQLTPREVEKLMIYTLSDVAFKRKARGLKLNYPEAVSIITETAMEGARDGKSVEDVMKEASKVLTKDDVMDGVADLIPNVQVEAIFTDGSRLVTVHDPIK
# chain 2: B1 chain
# chain 3: B2 chain
# modifications: carbamylated Lys222
# notes: urease chain ureA of Yersinia enterocolitica, as m1; residues 1-100 built; urease chain ureB of Yersinia enterocolitica, as m2; residues 31-162 built; urease chain ureC of Yersinia enterocolitica, as m3; residues 2-327 and 335-572 built; The asymmetric unit holds one copy each of ureA, ureB and ureC; Twelve such units form the holoenzyme, [[αβγ]3]4, with tetrahedral symmetry; also called basic …
# B4: Yersinia enterocolitica urease ureA protein (natural protein)
# chain: B3 chain 1
# notes: urease chain ureA of Yersinia enterocolitica; all residues of ureA (1-100) were built in the cryo-EM model; Native enzyme purified from the bacterium; source: purified from Y. enterocolitica cultures (Sephacryl S-300, Mono Q, SEC)
# Key:
# [1] = molecular target: B2; assay: cryo-EM structure; single-particle cryo-EM of purified urease at 0.39 mg/ml, frozen in a buffer of pH 7.0; tetrahedral (T) symmetry imposed; map at 1.98 Å; no substrate or inhibitor; details: both partners purified
# [2] = molecular target: the molecule itself; assay: as above
Binder,binding result [1],binding result [2],stoichiometry N [2]
B1,binds,binds,–
B2,–,binds,–
B3,–,–,12
B4,binds,binds,–
